What all share (assay): MST
Series [1] has as its target T1, WtIHF (wild-type integration host factor) (E. coli, UniProt P0A6X7;P0A6Y1 1-99;1-94).
The target in series [2] is T1, WtIHF (wild-type integration host …). This is another data set of the same source.
For series [3] the target is unchanged. The source holds these as a separate data set.

Read-outs that look alike come from different tables or passages of the source.

For orientation: Kd means a measure of binding affinity in units of concentration. A higher Kd goes with weaker binding.

T1 sequence (P0A6X7 whole entry, chain 1 of 2): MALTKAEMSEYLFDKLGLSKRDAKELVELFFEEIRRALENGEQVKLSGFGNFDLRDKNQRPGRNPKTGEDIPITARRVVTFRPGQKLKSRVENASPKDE
T1 sequence (P0A6Y1 whole entry, chain 2 of 2): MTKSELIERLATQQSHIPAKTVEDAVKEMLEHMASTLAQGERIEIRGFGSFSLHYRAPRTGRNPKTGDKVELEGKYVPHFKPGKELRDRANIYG

B1: H'-HJ (structured_DNA)
DNA 1: CCAGACAGCAGTTATCAATTTGTTGGGACGGAGG
DNA 2: CCTTCAACCACCGCTCATGATTACTGCTGTCTGG
DNA 3: CCTCCGTCCCAACAAATGGCTGCTACCGGAAGGG
DNA 4: AAAAACCCTTCCGGTAGCAGCCTGAGCGGTGGTTGAAGG
With B1, the Kd in series [1] worked out at 2.8 ± 0.5 nM; in series [2] it was 12 ± 0.89 nM; in series [3] it was 13.6 ± 2.21 nM.

B2: H1-HJ (structured_DNA)
DNA 1: CCAGACAGCAGTAATCAACTACTTAGGACGGAGG
DNA 2: CCTTCAACCACCGCTCATGATTACTGCTGTCTGG
DNA 3: CCTCCGTCCTAAGTAGTGGCTGCTACCGGAAGGG
DNA 4: AAAAACCCTTCCGGTAGCAGCCTGAGCGGTGGTTGAAGG
For B2, the Kd in series [1] came to 11 ± 1.6 nM; in series [2], 7.75 ± 1.1 nM; in series [3] it was 7.09 ± 0.93 nM.
